From patent US11840574B2, “Anti-DR5 antibody and use thereof” (DONG-A ST CO., LTD., priority 2017, dated 2023)
Values belong to the molecule of their own block, whether it stands above or below them.

Columns and labels:
Human DR5 [1] = target: T1, Human DR5 (Homo sapiens, UniProt O14763); assay: TRAIL competitive enzyme-linked immunosorbent assay; type: binding; conditions: 0.01-400 nM of TRAIL protein, absorbance at 405 nm
Description: In order to examine antigen-binding characteristics of the antibodies selected in Example 3, a TRAIL competitive enzyme-linked immunosorbent assay was conducted. ELISA plates were coated with 0.1 μg/ml human DR5 (R&D systems, U.S.A.) at 4° C. Thereafter, the plates were incubated with 0.01 nM-1440 nM of antibodies (D0, DA20, DA21, DA21, DA22, and DA23) together with 0.01-400 nM of TRAIL protein for 2 hours. After the plates were washed three times with PBST (0.1% bovine serum albumin and Tween-20 in PBS), HRP (horse radish peroxidase)-conjugated anti-human immunoglobulin Fc was added to each well and incubated for 1 hour. After three washes with PBST, color development was performed for 20 min with ABTS (Thermo, U.S.A.). When the color development reached to a certain level, the reaction was terminated with 1 N sulfuric acid. Absorbance at 405 nm was measured using a spectrophotometer (Molecular Device, U.S.A.) and is depicted in FIGS. 8a and 8b. The antibody AP disclosed in Example (7-1) was used as a control.

Human DR5 [2] = target: T1, Human DR5; assay: Binding affinity of antibody to human DR5 (BIAcore, CM5 chip); conditions: for Ka(1/Ms) / Ka: association rate, Human DR5, 1:1 Langmuir binding model; for Kd: equilibrium dissociation constant, Human DR5
Description: In order to measure affinity, human DR5 was coupled to carboxylated dextran biosensor chips (CM5, GE) according to the manufacturer's instruction. Association and dissociation rates were assessed by injecting IgG proteins that were 2-fold serially diluted to 5 nM, 2.5 nM, 1.25 nM, 0.625 nM, 0.313 nM, and 0.156 nM.
Association and dissociation rates were depicted in association and dissociation sensorgrams and calculated using a simple 1:1 Langmuir binding model (BIAcore X100 Evaluation Software, ver. 2.0). The equilibrium dissociation constants (KD), which is the ratio of dissociation constant (Kd) to association constant (Ka), were confirmed to be in the sub-nanomolar range. Measurements of the binding of antibody D0 and DA1 to DA35 of the present disclosure to DR5 are given in Table 11 below (antibody names are given as the names of the clones from which the antibodies were derived). A representative sensorgram for D0 is depicted in FIG. 1.

- Ka(1/Ms) (Human DR5 [2]): 1.24 × 10^06 1/Ms
- Kd (Human DR5 [2]): 70.6 pM
B4: DA31: humanized or deimmunized variant of parental clone D0; CDRs SEQ ID NO 1, 2, 7 / 4, 10, 13 (antibody, V domains shown)
VH: AVTLDESGGGLQTPGGGLSLVCKGSGFTFSSFNMLWVRQAPGKGLEWVAGIGKSDRYTGYGSAVKGRATISRDDGQSTARLQMNSLRAEDTGTYYCVKDAGSGCGSGGWTGACIDTWGHGTEVIVSS
VL: LTQPSSVSANLGGTVEITCSGGDSYAGSYYYGWYQQKAPGSAPVTVIYNNNNRPSNIPSRFSGSTSGSTATLTITGVQAEDEATYFCGSRDSSYVGIFGAGTTLTVL

- Ka(1/Ms) (Human DR5 [2]): 1.14 × 10^06 1/Ms
- Kd (Human DR5 [2]): 75.1 pM
B5: DA32: humanized or deimmunized variant of parental clone D0; CDRs SEQ ID NO 1, 2, 7 / 4, 10, 13 (antibody, V domains shown)
VH: AVTLDESGGGLQTPGGGLSLVCKGSGFTFSSFNMLWVRQAPGKGLEWVAGIGKSDRYTGYGSAVKGRATISRDDGQSTVRLQLNNLRAEDTAVYYCVKDAGSGCGSGGWTGACIDTWGHGTEVIVSS
VL: LTQPSSVSANLGGTVEITCSGGDSYAGSYYYGWYQQKAPGSAPVTVIYNNNNRPSNIPSRFSGSTSGSTATLTITGVQAEDEAVYFCGSRDSSYVGIFGAGTTLTVL

- Ka(1/Ms) (Human DR5 [2]): 1.24 × 10^06 1/Ms
- Kd (Human DR5 [2]): 78.8 pM
B6: DA33: humanized or deimmunized variant of parental clone D0; CDRs SEQ ID NO 1, 2, 7 / 4, 10, 13 (antibody, V domains shown)
VH: AVTLDESGGGLQTPGGGLSLVCKGSGFTFSSFNMLWVRQAPGKGLEWVAGIGKSDRYTGYGSAVKGRATISRDDGQSTARLQLNNLRAEDTAVYYCVKDAGSGCGSGGWTGACIDTWGHGTEVIVSS
VL: LTQPSSVSANLGGTVEITCSGGDSYAGSYYYGWYQQKAPGSAPVTVIYNNNNRPSNIPSRFSGSTSGSTATLTITGVQAEDEATYFCGSRDSSYVGIFGAGTTLTVL

- Ka(1/Ms) (Human DR5 [2]): 1.00 × 10^06 1/Ms
- Kd (Human DR5 [2]): 94.2 pM
B7: DA34: humanized or deimmunized variant of parental clone D0; CDRs SEQ ID NO 1, 2, 7 / 4, 10, 13 (antibody, V domains shown)
VH: AVTLDESGGGLQTPGGGLSLVCKGSGFTFSSFNMLWVRQAPGKGLEWVAGIGKSDRYTGYGSAVKGRATISRDDGQSTAYLQMNSLRAEDTAVYYCVKDAGSGCGSGGWTGACIDTWGHGTEVIVSS
VL: LTQPSSVSANLGGTVEITCSGGDSYAGSYYYGWYQQKAPGSAPVTVIYNNNNRPSNIPSRFSGSTSGSTATLTITGVQAEDEATYYCGSRDSSYVGIFGAGTTLTVL

- Ka(1/Ms) (Human DR5 [2]): 1.13 × 10^06 1/Ms
- Kd (Human DR5 [2]): 80.1 pM
B8: DA35: humanized or deimmunized variant of parental clone D0; CDRs SEQ ID NO 1, 2, 7 / 4, 10, 13 (antibody, V domains shown)
VH: AVTLDESGGGLQTPGGGLSLVCKGSGFTFSSFNMLWVRQAPGKGLEWVAGIGKSDRYTGYGSAVKGRATISRDDGQSTARLQMNSLRAEDTAVYYCVKDAGSGCGSGGWTGACIDTWGHGTEVIVSS
VL: LTQPSSVSANLGGTVEITCSGGDSYAGSYYYGWYQQKAPGSAPVTVIYNNNNRPSNIPSRFSGSTSGSTATLTITGVQAEDEATYFCGSRDSSYVGIFGAGTTLTVL

Second part, the molecule before the results:

B1: DA20: humanized or deimmunized variant of parental clone D0; CDRs SEQ ID NO 1, 2, 7 / 4, 10, 14 (antibody, V domains shown)
VH: EVQLVESGGGLVQPGGSLRLSCAASGFTFSSFNMLWVRQAPGKGLEWVAGIGKSDRYTGYGSAVKGRFTISRDDSKSTVYLQMNSLRAEDTAVYYCVRDAGSGCGSGGWTGACIDTWGQGTLVTVSS
VL: DIQMTQSPSSLSASVGDRVTITCSGGDSYAGSYYYGWYQQKPGKAPKTLIYNNNNRPSGVPSRFSGSRSGTDFTLTISSLQPEDFATYYCGSRDSAGMGAFGQGTKVEIK
- antigen binding in the presence of TRAIL (Human DR5 [1]): maintained a certain level of antigen binding irrespective of TRAIL concentrations
- Ka(1/Ms) (Human DR5 [2]): 1.00 × 10^06 1/Ms
- Kd (Human DR5 [2]): 12 pM

B2: DA21: humanized or deimmunized variant of parental clone D0; CDRs SEQ ID NO 1, 2, 7 / 4, 10, 16 (antibody, V domains shown)
VH: EVQLVESGGGLVQPGGSLRLSCAASGFTFSSFNMLWVRQAPGKGLEWVAGIGKSDRYTGYGSAVKGRFTISRDDSKSTVYLQMNSLRAEDTAVYYCVRDAGSGCGSGGWTGACIDTWGQGTLVTVSS
VL: DIQMTQSPSSLSASVGDRVTITCSGGDSYAGSYYYGWYQQKPGKAPKTLIYNNNNRPSGVPSRFSGSRSGTDFTLTISSLQPEDFATYYCGSRDSSGAGGFGQGTKVEIK
- antigen binding in the presence of TRAIL (Human DR5 [1]): maintained a certain level of antigen binding irrespective of TRAIL concentrations
- Ka(1/Ms) (Human DR5 [2]): 1.11 × 10^06 1/Ms
- Kd (Human DR5 [2]): 6.43 pM

B3: DA30: humanized or deimmunized variant of parental clone D0; CDRs SEQ ID NO 1, 2, 7 / 4, 10, 13 (antibody, V domains shown)
VH: AVTLDESGGGLQTPGGGLSLVCKGSGFTFSSFNMLWVRQAPGKGLEWVAGIGKSDRYTGYGSAVKGRATISRDDGQSTAYLQMNSLRAEDTGTYYCVKDAGSGCGSGGWTGACIDTWGHGTEVIVSS
VL: LTQPSSVSANLGGTVEITCSGGDSYAGSYYYGWYQQKAPGSAPVTVIYNNNNRPSNIPSRFSGSTSGSTATLTITGVQAEDEATYYCGSRDSSYVGIFGAGTTLTVL
- Ka(1/Ms) (Human DR5 [2]): 1.03 × 10^06 1/Ms
- Kd (Human DR5 [2]): 77.4 pM

B9: DA1: humanized or deimmunized variant of parental clone D0; CDRs SEQ ID NO 1, 2, 7 / 4, 10, 13 (antibody, V domains shown)
VH: EVQLVESGGGLVQPGGSLRLSCAASGFTFSSFNMLWVRQAPGKGLEWVAGIGKSDRYTGYGSAVKGRFTISRDDSKSTVYLQMNSLRAEDTAVYYCVRDAGSGCGSGGWTGACIDTWGQGTLVTVSS
VL: DIQMTQSPSSLSASVGDRVTITCSGGDSYAGSYYYGWYQQKPGKAPKTLIYNNNNRPSGVPSRFSGSTSGTDFTLTISSLQPEDFATYYCGSRDSSYVGIFGQGTKVEIK
- Ka (Human DR5 [2]): 4.9e+06 M⁻¹ s⁻¹

B10: DA2: humanized or deimmunized variant of parental clone D0; CDRs SEQ ID NO 1, 2, 7 / 4, 10, 13 (antibody, V domains shown)
VH: EVQLVESGGGLVQPGGSLRLSCAASGFTFSSFNMLWVRQAPGKGLEWVAGIGKSDRYTGYGSAVKGRFTISRDDSKSTVYLQMNSLRAEDTAVYYCVRDAGSGCGSGGWTGACIDTWGQGTLVTVSS
VL: DIQMTQSPSSLSASVGDRVTITCSGGDSYAGSYYYGWYQQKPGKAPKTLIYNNNNRPSGVPSRFSGSRSGTDFTLTISSLQPEDFATYYCGSRDSSYVGIFGQGTKVEIK
- Ka (Human DR5 [2]): 1.9e+06 M⁻¹ s⁻¹

B11: DA3: humanized or deimmunized variant of parental clone D0; CDRs SEQ ID NO 1, 2, 7 / 4, 10, 13 (antibody, V domains shown)
VH: EVQLVESGGGLVQPGGSLRLSCAASGFTFSSFNMLWVRQAPGKGLEWVAGIGKSDRYTGYGSAVKGRFTISRDTSKSTVYLQMNSLRAEDTAVYYCVRDAGSGCGSGGWTGACIDTWGQGTLVTVSS
VL: DIQMTQSPSSLSASVGDRVTITCSGGDSYAGSYYYGWYQQKPGKAPKTLIYNNNNRPSGVPSRFSGSTSGTDFTLTISSLQPEDFATYYCGSRDSSYVGIFGQGTKVEIK
- Ka (Human DR5 [2]): 4.9e+06 M⁻¹ s⁻¹

B12: DA4: humanized or deimmunized variant of parental clone D0; CDRs SEQ ID NO 1, 2, 7 / 4, 10, 13 (antibody, V domains shown)
VH: EVQLVESGGGLVQPGGSLRLSCAASGFTFSSFNMLWVRQAPGKGLEWVAGIGKSDRYTGYGSAVKGRFTISRDDSKNTVYLQMNSLRAEDTAVYYCVRDAGSGCGSGGWTGACIDTWGQGTLVTVSS
VL: DIQMTQSPSSLSASVGDRVTITCSGGDSYAGSYYYGWYQQKPGKAPKTLIYNNNNRPSGVPSRFSGSTSGTDFTLTISSLQPEDFATYYCGSRDSSYVGIFGQGTKVEIK
- Ka (Human DR5 [2]): 1.2e+06 M⁻¹ s⁻¹
